The record followed here is the domain aggregation screens of Martell et al. (2025).

A short description of this series: soluble fraction after stress (log2 fold change); higher = more stays soluble; pooled small domains, quantitative proteomics. The following applies: stress: 50 degC. A digest of the protocol:
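Each library was heated to 50°C as a stress step. The libraries, made up of small protein domains, were pooled and analysed at high throughput by quantitative proteomics. The reported value is the base-two logarithm of the fold change in each protein's soluble amount after stress, taken as a measure of aggregation propensity. The higher the value, the more protein stays in solution.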

Take “HMAPEPFILSVDADGKYYIDDLEKTKQEILIYATALYQEKPTTDFLVRGDKSAAYNDVLQAMVVLKE”: the “soluble fraction (log2)” value is -0.0406.
The same measure for “HMLSDFHLNHDSIVNHTVQKKETIFSLSKKYGLSINEIIKANPGIQIDKLKRRSILIIPLRKK”: -1.9; for “HMAHPRTHEALNPLWEKYLGPNAGNDFFLSGGTSLKALMFLKDLEKTLNKRIAIHAFFKDPTYEHVVSD”: -0.683.
The same measure for “HMNMEYQKAINHIVQMVKDGQLIVGSKIPSERDLSESLGIGRNSTREAISILRGMGLVESRHGSGNYIAKD”: -0.148; for “HMKHAIKEKIRNEYVHGYLNEEGYRVMPTLDELIRKYEVPASSTYRASSKEGWKKQKEAFLEHLRGEIDA”: -0.139; for “HMGKREKTKVANRQAILVAARAVFAELGYEAATVRDIIRGTDLASGTFYNYFKSKEEVFDALADDGA”: -1.17.
Consider “HMEDPKLAQLTEQERKILDLIADGLTNRQIAEKMFLAEKTVKNYVSTILAKMGMSNRSEAAAYVARLEAG”, for which the “soluble fraction (log2)” value was 0.0787.
In the case of “HMSHISLGQRYKIEGYLQINLKRTQIAKEIGLPKKTVNQEIKRNSNPQTGIYKAEEAHQLYLDRMQKKRK” it was -0.131; in that of “HMDAVTPVLSRIRDARFKRMVLPGDEIEISVTLIDTIGKFFNLSGQIRNKDKISLTVNFALALV”, -0.0104; in that of “HMSGIVPAAPPLRPDLDIKWHTGDKVRHAKWGEGTIVSVKGEGEETELKIAFPGQGIRPFMQKYAPITR”, 0.163.
In the case of “HMRLDHIFSVVERLKGVSLGAGDRLEVQKYEDLLTVYKSKNALSSEEAQTLNDILASLLKMMAKYD” it was -0.00461; in that of “HMEQRREEFILLAKELLEKELRKQNLEVHENLKPDVLNDVAKRLGMVSMDDLLAAVGDGKITPGTVVSKIV”, 0.064.
The same measure for “HMMEERVIEFANVLRRNGVRVSLAENMDAFRALKSLGISDPLLFRHALRATLIKRGSDIQPFEELFDFFFL”: -1.26; for “HMNAAFMKAERLLAILNILLTGKRVSSTELAKKLEVSVRTVYRDVEALSEAGFPVYATMGRDGGFGLIEGF”: -1.95; for “HMDGASVQRITELTATLNRYRHEYYNLAKPSVSDAVYDRLFDELAALEQKTGIVLSNSPTQTV”: -0.247.
Take “HMVDISLSDRELEVLRLLAMGLSNADISRRLYLSEGTIRNYMSGIFSKLNVSDRTQAVVIALREGLVNL”: the “soluble fraction (log2)” value is -0.48.
For the sequence “HMNNVDIMGRMVYDDQHREVINFGKYKGVLVTEVLKKDPGYFSWIQQGDFPSDMKRIMMAIKLRM”, the “soluble fraction (log2)” value was -2.3.
For the sequence “HMGRKPVSPEIVERVLQLAKSNPDWGYEHIAGTMRYLGYNVSATTIRHILEANGIVPDPERRL”, the “soluble fraction (log2)” value is -0.128.
With “HMNKIGTIVSINGPIVKTAGDVGFVMHEMVYVGKEKLVGEVIGLTTDFTIVEVYEETSGIKPGETIEGT”, the “soluble fraction (log2)” value was -1.5.
Take “HMTVPTEVALELMHATALEDNEQRILYIASFKEKHREHLHATIEVDGQEVTLARYADLVATGAYL”: the “soluble fraction (log2)” value is -0.505.
“HMDAAEVEATARAMLRRSALNLLAQREQTAFELKQKLSRRFPEQAALLDEVIERLQEQGLQDDTR”: the “soluble fraction (log2)” value was -0.102.
The same measure for “HMVAESGLPPAFRSTWRHIMQTRGAQLDVLAMRTGTDAASLQKQLHAMELGGWVRRMPGGWYVPLK”: -0.736; for “HMVKETNYSFFLKQIDAGTVEQVQIEDTEIKFKVSTADGKEQVYSTVRVEDPDLVDRLYSKGNIDFTGN”: -0.0595; for “HMEKSSALRAKEAFMALYHDGKFKPGTKIPSESNMAELLGVSRETWRKALALLRGDGVLYSKHGSGTYLLE”: 0.11.
In the case of “HMRGETSYANDIIKRLKQANLIVVEGTLYPLLNRLKKDGLLHYEWRESQQGPPRKYYGLTEEGEA” it was -0.132.
For the sequence “HMTRVDKLQTWLSLPREQRDWDEGALMLLQLTGNKIMYRNLSVNPEGKANFIEGKLQQYLEFRLA”, the “soluble fraction (log2)” value was -1.26.
In the case of “HMDDTVILPIQINGKRRAEISVPKAMPASEVEKLALANEDVLRFLAGQPIKKLIVVPGRIINVV” it was 0.179.
In the case of “HMENEIVMPVQINGKKRGDLTIARDADQASIQKAVLELDFVKAALNGGSPKKVIVVPQRIVNVV” it was 0.325.
For “HMQSNDAGELEAVVKGIIDANPKVVADYLAGNQKVVSFFVGQAMKATKGKANPKMVSEILGKLL”, the “soluble fraction (log2)” value was 0.00348.
In the case of “HMAQKQLYIAGTDYTKNSTSQLVLAYFPAKPSSIKIFFDGIYQNKDKWSLFGKTIIFGLPISSNAVEVHYE”, the “soluble fraction (log2)” value was -2.1.
The same measure for “HMVNVTEAIDLENGTGKLSGTFNHEPKSAEEIIFLLKIDTNKWKLSQYWNKQMGDHWRVSALISQI”: -1.91; for “HMTQSQSLQSQFEQLEKAYQDNLHLLSPKQKLIIQEAGKIIQQLPQQAQIQAKVNLYQSLSAEISKESQQ”: 0.118; for “HMGVPVTAPMPGKVLKVTVSVGAAVKNGDLVLVLEAMKMENEIFATANGVVKEIRSREGDTVNSGDVMMVI”: -0.533.
“HMPPDVIENIFKNDANKIIDLYNMAPRGQKETIVEMIKNKRLQGINVDANVLVKLGELTGIDFVN”: the “soluble fraction (log2)” value was determined as 0.0803.
The same measure for “HMVAPKDIVMPSFVGKKYTDVVNTPNSSYTFEFKKDEKNSSDYAVGFIMDQKPKAGETVKSNATVTLIVSK”: -0.0152; for “HMNERLKQLRLSLNLNQEEFGKWLGISKSGVSDIESGRRKVTEQHIIMLSNHNISEKWLRTGEGEMFV”: -0.0803.
The same measure for “HMESPSGGHRIALAFDQGTARAVDATYARLTGAGYEGRTKPWDAPWGQRYATVFDPDGNSVDLFAALE”: -0.263; for “HMDDGARQLVDQLNRLIANPAVSARIIHGYLILEGRVESEWEKTRTLLLAQVAGLPVIDLITVS”: -1.85.
In the case of “HMAEPAEDLLSLEGMDKGLAYQLASNGVVTREDLAELATDDLLEIREMDAEQAAALIMKAREHWFEAEQQ” it was 0.211; in that of “HMTGMDALIGRRVFVSEEILPGDAGGRVAVDGDSWRAISVGTAKPIPAGTEVRIHGYKSLILEVEPI”, -0.162; in that of “HMLTDMSKIRKVLKLYGKGNSKLFISTYLSLSRNTVKKYISLFEVSGKTIEEILAKSDSELELLFSG”, -0.919.
As to “HMAEPEALLAMAQRILGEEVAQSLFQGAAREQGKEGYLPDPTPAFLDALEARLSGSVGAATAHAMISQLVG”, the “soluble fraction (log2)” value is -0.0483.
The same measure for “HMKTFSFEILADTVKKQRKAKGMTQAELSEATGINRSMIGQMENMTFKPSIEQLEALSQALDFNVIDLYTE”: -0.196.
Consider “HMTEWDDATVKDAVEYFMSVNGRVPTVTDFKKENGLPSHPVIKQRYKINLHEWLNKNFPTYY”, for which the “soluble fraction (log2)” value was -0.544.
The same measure for “HMDQQTKFKTALAALAASAETKDRKLTKADVKEFLEDMDLGEEQMKLVYAYLASKHIHVEGAE”: 0.178; for “HMKNLTEVEYSEFLESIAQDRVSKVQVDGLIIRGEMNDGQRFETVQPQVTDKALIDDMVNHRVDFSGARP”: 0.0951.
For “HMSLTEEQVDSGLKEIRLALLEADVALPVVKNFITNIKPKAIGQEIIRSTSPGQMIVKIVYDELVSIL”, the “soluble fraction (log2)” value was -0.0891.
In the case of “HMESGLPLPRFVSLGADEVNLRTGPGLRYPVAWVFVRKALPVEIVAEFEQWRRVRDFEGAEGWVHKAML” it was -0.36; in that of “HMQKNKSVLFKDIVIAFNQNPKKLFNYKQLAADLDIHSEAERMLISQLLNDLKDQNFLEEVERGKYKLKL”, 0.0237; in that of “HMFFMTMGEKIQLLRKKQNWSQETLAEKLSVSRQAVSLWERDESQPELDKLLKLAKIFSVTTDYLIDDSVT”, -0.386.
In the case of “HMRWGDPLTVKVPSFIGQTKDDIAKQHYPFRIEWHGEGAKIGSQLPEVDSVIKQDGTIHLYLV” it was -0.104; in that of “HMQDGVNLENIEQKLSTLGVGKAQYFLQNVGGNKFNAYMALNTDGVEGYQKGSDTLIEIKNVE”, 0.11.
The same measure for “HMDLYIILGLERSATLSDVRRAYRRLARKYHPGINPGDRNSASVFTRVSEAYQVLSDPEQRRRYDSR”: -2.81.
As for “HMNGGPHYLRDVRTSLGLSQADLAKAVGTSANMIHYLESGERALTLKWIRRISEALNVSPMRLIN”, the “soluble fraction (log2)” value was -1.6.
In the case of “HMKEIATKSELTYFIQRLLDLLEETNFFNPEERKKAMINHIEAIFRRNNLTLQELNMLHGIITSITR” it was -2.62; in that of “HMASLSITVNGETRRAAPGSIADLVRAIGLDPAKVAVERNGEIAPRSTLADVALADGDVLEIVHFVG”, -0.0709.
In the case of “HMDITGIGIKKRIKAIIDSEDKKNPLSDTQIVEILKNEGLEISRRTVAKYRSDLQIPSSSKRKK” it was 0.403; in that of “HMKQEFEMGLPNGVGEQMLAHAIEKFDVKLEHSEFGPKLIGTYEELEKAKVFLYEAIEARLNQLE”, -0.0154.
The same measure for “HMAVFRVGDKVKSMEGMIGEVRGINGRLIQVATPYGLRDYYPHQITKVENPLAAAPAPLNEEA”: 0.269; for “HMKPTVKKLLAALPELRSGQPLHLSVATRKLRDAGLLGKNASSPTLFRNYVAQFELIPENQPNAVRYR”: -0.551.
“HMELEFLTEKQKEALILAVNRGYYDVDSEVTLKRLADELGIARSTYGEHLKRAESEALKMVVSDLLRD”: the “soluble fraction (log2)” value was -0.382.
The same measure for “HMDQDLGFLINKYFELGKDYNTLVEIYEKIKEYIASIDKKMLEYTKNFTIEQLKKWLDDGTINNIILTLG”: -0.142.
In the case of “HMSQIILSARSGHAALRHRLGELGYTFADKEFDDIYERFLEVADQKKEVYDEDLESIVQERQRD” it was 0.0537; in that of “HMSKQEFVDRLRVSLSGKISPASVEDNARYYEDYINTHIRLGEPEEDVLEGLGDPRLIARSIVAAESV”, 0.0896; in that of “HMNVVSIEHIRTHLQNHLSLIGRSIEESFNEAKVIAFVASLFLTHRGYASVSQDMGTNGEIYLQDLW”, -0.381.
In the case of “HMKNEQESIAQKLYEAALKNDFVTIQEIQSGGYRLRNDDLTHMRESGVQSNTLIAIQKIFGL” it was 0.398.
In the case of “HMTGQHFDLEDTDGNLVYEIDSTVPLKTFYIYDAMHTEIFRMTKELLHALPTYRFYLYGEPYGVLKKQ”, the “soluble fraction (log2)” value was -0.174.
With “HMPSLGGLLALLKRNRKPDAMEALDRLISKEDRPETAEALENIREKVRNMQMREAEGLLLALMEP”, the “soluble fraction (log2)” value is -0.0372.
With “HMNPTSLTFRSNVKDGKVYVDGIFKGSSDLDFDLPKGRHSIRIEKDGYVPFAKTINLIKALVIDFNMEKA”, the “soluble fraction (log2)” value was -1.83.
